The results in this text go back to the nanobody polyreactivity screen of Harvey et al. (2022).

A short description of the data set: yeast display, Sf9 membrane polyspecificity reagent, FACS + sequencing; frameworks hold sequencing errors. The method in brief:
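Galactose-induced (36–48 hours) yeast carrying a synthetic nanobody display library were exposed to 10% biotinylated, detergent-solubilized Sf9 membrane reagent at 4 °C for 1 hour. FACS followed streptavidin microbead enrichment, using low and high (top ~1%) gates for expression (anti-HA) and reagent binding (streptavidin). Colony PCR, MiSeq 2 × 250 sequencing and CDR-length filtering followed. Labels for polyreactivity reflect the gate of origin.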
Regarding “QVQLVESGGGLVQAGGSLRLSCAASGSTFYEYAMGWYRQAPGKERELVAAITSGGSTYYADSVKGRFTISRDNAKNTVYLQMNSLKPEDTAVYYCAADPRIRRGDRSTHGYDYWGQGTQVTVSS”, the “polyreactivity (PSR sort gate)” value is recorded as “low polyreactivity”. Regarding “QVQLVESGGGLVQAGGSLRLSCAASGSIFTGNTMGWYRQAPGKERELVAAISRRGGRTYYADSVKGRFTISRDNAKNTVYLQMNSLKPEDTAVYYCAALGRDSTPHGYWGQGTQVTVSS”, the “polyreactivity (PSR sort gate)” value is “high polyreactivity”. Turning to “QVQLVESGGGLVQAGGSLRLSCAASGRTFNTYAMGWYRQAPGKEREFVAAIRYSGDRTNYADSVKGRFTISRDNAKNTVYLQMNSLKPEDTAVYYCAAVNYFPWWSFEYWGQGTQVTVSS”, the “polyreactivity (PSR sort gate)” value is “low polyreactivity”.

For “QVQLVESGGGLVQAGGSLRLSCAASGSIFIGYAMGWYRQAPGKERELVAAITSAGSTYADSVKGRFTISRDNAKNTGYLQRNSVKPEDTAVYYCAARFFLVTLDYWGQGTQVTVSS”, the “polyreactivity (PSR sort gate)” value is on record as “low polyreactivity”.

As for “QVQLVESGGGLVQAGGSLRLSCAASGSIFDWYAMGWYRKAPGTERELVAAINEGGGSTYYADSVKGRFTISRDNAKNTVYLQMNSLKPEDTAVYYCAAGDYYLQDNYWGQGTQVTVSS”, the “polyreactivity (PSR sort gate)” value is “low polyreactivity”. As to “QVQLVESGGGLVQAGGSLRLSCAASGRIFPGYTMGWYRQAPGKERELVAGISRSGGRTYYADSVKGRFTISRDNAKNTVYLQMNSLKPEDTAVYYCADDGYPGRRYTGMDYWGQGTQVTVSS”, the “polyreactivity (PSR sort gate)” value is given as “high polyreactivity”. The same measure for “QVQLVESGGGLVQAGGSLRLSCAASGRIFFYYAMGWYRQAPGKERELVATITASGDSTYYADSVKGRFTISRDNAKDTVYLQMNSLKPEDTAVYYCAADDGDYYEVDYWGQGTQVTVSS”: “low polyreactivity”; for “QVQLVESGGGLVQAGGSLRLSCAASGYTFFFNVMGWYRQAPGKVRELVAAISYSGGSTNYADSVKGRFTISRDNAKNTVYLQMNSLKPEDTAVYYCNARSVSRNGYEDVYWGQGTQVTVSS”: “low polyreactivity”; for “QVQLVESGGGLVQAGGSLRLSCAASGRTCGRYAMVLYRQAPGKERELVAAISYSGGSTYYADSVKGRFTISRDNAKNTVYLQMNSLKPEDTAVYYCARYSIFRWTRDEYWGQGTQVTVSS”: “high polyreactivity”. For the sequence “QVQLVESGGGLVQAGGSLRLSCAASGFIFYKYAMGWYRQAPGKERELVARISISGGRTYYADSVKGRFPISRDNAKNTVYLQMNSLKPEDTAVYYCATSPWWYGYAAYGMDYWGQGTQVTVSS”, the “polyreactivity (PSR sort gate)” value is reported as “low polyreactivity”.

With “QFQLVESGGGLVQAGGSLRLSCAASGRIFGVYAMGWYRQAPVKERQLVATISLSAGRTYYADSVKGRFTISRDNAKNTVYLQMNSLKPEDTAVYYCAAQSNYSIRRHYYTFRYSYDYWGQGTQVTVSS”, the “polyreactivity (PSR sort gate)” value is reported as “high polyreactivity”. With “QVQLVESGGGLVQAGGSLRLSCAASGSIFAGNAMGWYRQAPGKERELVAAISRRGGSTYYADSVKGRFTISRDNAKNTVYLQMNSLKPEDTAVYYCNALLRYAYHAAYGYWGQGTQVTVSS”, the “polyreactivity (PSR sort gate)” value is reported as “high polyreactivity”.

Turning to “QVQLVESGGGVVQAGGSLRLSSAASGYIFRAYAMGWYRQAPGKERELVAAISSRGGSTYFADSVKGRFTISRDNAKNTVYLQMNSLKPEDTAVYYCAAAYRQPYIGYGYWGQGTQVTVSS”, the “polyreactivity (PSR sort gate)” value was “high polyreactivity”. As to “QVQLVESGGGLVQAGGSLRLSCAASGRIFRYYMRWYRQAPGKERKLVAVISSGGRTKYADSVKGRFTISRDNAKNTVYLQMNILKPQDTAVYYCAARYPREAAYVFDYWGQGTLVTVSS”, the “polyreactivity (PSR sort gate)” value is reported as “high polyreactivity”.

Consider “QVQLVETGGGLVQAGGSLRLSCAPSGSIFEYNGMGWYRQAPGKERELVAAITTTGTTDYADSVKGRFTISRDNAKNTVYLQMNSLKPEDTAVYYCAADYTYYYKGEYDYWGQGTQVTVSS”, for which the “polyreactivity (PSR sort gate)” value is “low polyreactivity”. For “QVQLVESGGGLVQAGGSLRLSCAASGITFDGYAMGWYRQAPGKESELVAGISWSGARSYYADSVKGRFTISRDNAKYTVYLHMNSLKPEDTAVYYCNKVSLRNHGGYDYWGQGTQVTVSS”, the “polyreactivity (PSR sort gate)” value is listed as “high polyreactivity”. As for “QVQLVESGGGLVQAGGSLRLSCAASGFIFSYAMGWYRQAPGKERELVAAISKSGGRTYYADSVKGRFTISRDNAKNTVYLQMNSLIPEDTAVYYCAVRDLHLSNARYNYWGQGSQVTVSS”, the “polyreactivity (PSR sort gate)” value is reported as “high polyreactivity”. In the case of “QVQLVESGGGLVQAGGSLRISCAASGLTSPIYAMGWYRQAPGKERELDAAISKNGGSTYYADSVKGRFTISRDNAKNTVYVQMNSLKPEDTAVYYCNAVVYHYTLDHEYDYWGQGTQVTVSS”, the “polyreactivity (PSR sort gate)” value was “high polyreactivity”. With “QVQLVESGGGLVQAGGSLRLSCAASGRILVTYAMGWYRQAPGKERELVAAITRGTNTNYADSVKGRFTISRDNAKNTVYLQMNSLKPEDTAVYYCAARRYRYRYGYGGDYWGQGTQVTVSS”, the “polyreactivity (PSR sort gate)” value is on record as “high polyreactivity”. Take “QVQLVESGGGLVHAGGSLRLSCAASGNTFWPYAMGWYRQAPGKERELVAAINYSGTRTYYSDSVKGRFTISRDNAKNTVYLQMNSLKPEDTAVYYCAKATSPPGTTAGGYDYWGQGTQVTVSS”: the “polyreactivity (PSR sort gate)” value is on record as “low polyreactivity”.

With “QVQLVESGGGLVQAGGSLRLSCAASGFTFTPNAMGRYRQAPGKERELVAVISYSGGSTYYADSVKGRFTISRDNAKNTVYLQMNSLKPEDTAVYYCAKRTYSSKYFGFEYWGQGTQVTVSS”, the “polyreactivity (PSR sort gate)” value is given as “high polyreactivity”. As to “QVQLVESGGGLVQAGGSLRLSCAASGNIFARYAMGWYRQAPGKEREMVARISESGGRTYYADSVKARFTISRDNAKNTVYLQMNSLKPEDTAVYYCADRRYIQYGFKFYYWGQGTQLTVSS”, the “polyreactivity (PSR sort gate)” value is given as “high polyreactivity”. With “QVQLVESGGGLVQAGGSLRLSCAASGLTFGDYAMGWYRQAPGKERELVAAITKSGGRTYYADSVKGRFTISRDNAKNTVYLQMNSLKPEDTEVYYCATRKGRRYGYNYWGQGTQVTVSS”, the “polyreactivity (PSR sort gate)” value is recorded as “high polyreactivity”.

For “QVQLVESGGGLVQAGGSLRLSCAASGFTFGRNVIGWYRQAPGKERELVAAISLSGGSTYYADSVKGRFTISRDNAKNTVYLQMNSLKPEDTAVYYCAAGYITWYDYWGQGTQVTVSS”, the “polyreactivity (PSR sort gate)” value is reported as “high polyreactivity”. As for “QVQLVEAGGGLVQAGGSLRLSCAASGSIFSHNAMGWYRQAPGKERELVAAISVSGGTTYYADSVKGRFTISRDNAKNTVYLQMNSLKPEDTAVYYCAAKRFQGVGYLGQGTQVTVSS”, the “polyreactivity (PSR sort gate)” value is “high polyreactivity”.

On to “QVQLVESGGGLVQAGGSLRLSCAASGFTFSYYAMGWYRQAPGKERELVASISRSGNTYYADSVKGRFTISRDNAKNSVYLQMNSLKPEDTAVYYCAAAYKSYYLDGTYYYWGQGTQVTVSS”, for which the “polyreactivity (PSR sort gate)” value is on record as “high polyreactivity”. Turning to “QVQLVESRGVLVQAGGSLRLSCAASGLTFGGNAKGWYRQAPGKERELVAAISWSDDTTDYADSVKGRFTISRDNAKNTVYLQMNSLKPEDTAVYYCAARLPFEHVDYWGQGTQVTVSS”, the “polyreactivity (PSR sort gate)” value is on record as “low polyreactivity”. The same measure for “QVQLVESGGGLVQAGGSLRLSCAASGSIFRWNAMGWYRQAPGKERELVAAIDSGGSTYADSVKGRFTISRDNAKNTVYLQMNSLKPEDTAVYYCAAAIPDEWPYDYWGQGTQVTVSS”: “low polyreactivity”; for “QVQLVESGGGLVQAGGSLRLSCAASGSLFSTYAMGWYRPAPGKERELVAAIPTSGGRTYYADSVKGRFTISRDNAKNTVYLQMNSLKPEDTAVYDCNAVRGGRYGLDYWGQGTQVTVSS”: “high polyreactivity”. Take “QVQLVESGGGLVQAGGSLRLSCAASGYTFWWYAMGWSRQAPGKERELVAAISIGGSTKYADSVKGRFTISRDNAKNTVYLQMNSLKPEDTAVYYCAAEVSYHYVPYGYWGQGTQVTVSS”: the “polyreactivity (PSR sort gate)” value is “low polyreactivity”. “QVQLVESGGGLVQAGGSLRLSCAASGRIFVPNAMGWYRPAPGKERELVAAISLRGGSTYYADSVKGRFTISRDNAKYTVYLQMNSLKPEDTAVYYCGWAYRYPHDYWGQGTQVTVSS”: the “polyreactivity (PSR sort gate)” value is given as “high polyreactivity”. The same measure for “QVQLVESGGGLVQAGGSLRLSCAASGRIFAHYAMGWYRQAPGKERELVAAIRRSGVSTYYADSVKGRFTSSRDNAKNTVYLQMNSLKPEDTAVYYCNARAYVSPYDYWGQGTQVTVSS”: “low polyreactivity”; for “QVQLVESGGGLVQAGGSLRLSCAASASIFDGYAMGWYRQAPGKERELVAAISKGGTRTYYADSVKGRFTISRDNAKNTVYLQMNSLKPEDSSVYYCNAYYRREPDDGDYDYWGQGTQVTVSS”: “high polyreactivity”; for “QVQLVESGGGLVQAGGSLRLSCAASGSIFHSNAMGWYRQAPGKERELVAAISASGGSTYYADSVKGRFTISRDNAKNTVYLQMNSLKPEDTAVYYCNAVSRYYRFSPYYYWGQGTQVTVSS”: “high polyreactivity”.

With “QVQLVESGGGLVHAGGRLRLSCAASGSIFDYYAMGWSRPAPGKERELVADNTSGGSTNYADSVKGRFTISRDNAKNTVYLQMNSLKPEDTAVYYCATRIGYSDWPDGVWDLDDSEYYYWGQGTQVTVSS”, the “polyreactivity (PSR sort gate)” value is “low polyreactivity”. Turning to “QVQLVESGGGLVQVGGSLRLSCAASGSILTDYGMGWNRPAPGKERELVAVIDFSSGSTYYADSVKGRFTISRDNAKNTVYLQMNSLKPEDTAVYYCAAGPDPLGEDYWGQGTQVTVSS”, the “polyreactivity (PSR sort gate)” value is “low polyreactivity”. For the sequence “QVQLVESGGGLVQAGGSLRLSCAASGRTFSRNAMGWYRQAPGKERELVAAISWSGARTYYADSVKGRFTISRDNAKNTVYLQMNSLKPEDTAVYYCAARVPSWKYDYWGQGTQVTVSS”, the “polyreactivity (PSR sort gate)” value is on record as “high polyreactivity”. As for “QVQIVESGGGLVQAGGSLRLSCAASGSTLYAYAMGWYRQAPGKERELVAAIRTGGSTYYADSVKGRFTISRDNAKNTVYLQMNSLKPEDTAVYYCADDHGYQYGYWGQATQVTVSS”, the “polyreactivity (PSR sort gate)” value is “low polyreactivity”. On to “QVQLVESGGGLVQAGGSLRLSCAASGLTFDSYTMGWYRQAPGKERELVAAITNSGGSTYYADSVKGRFTISRDNAKNTVYLQMNSLKPEDTAVYYCAAFRTSRLYGGSYGYWGQGTQVTVSS”, for which the “polyreactivity (PSR sort gate)” value is “high polyreactivity”. As to “QVQLVESGGGLVQAGGSLRLSCAASGSTLALNAIGWYRQAPGKEREFVADISWSGGDTYYADSVKGRFTISRDNAKNTVYLQMNILKPEDTAVYYCATDFSYQFQALEDDYWGQGTQVTVSS”, the “polyreactivity (PSR sort gate)” value is recorded as “low polyreactivity”. For the sequence “QVQLVESGGGLVQAGGSLRLSCAASGRIFRHYAMGWYRQAPWKERELVATITSGGRTNYADSVKGRFTISRDNAKNTVYLQMNSLKPEDTAVYYGAVDTWGSSWYDLFRETSDYWGQGTQVTVSS”, the “polyreactivity (PSR sort gate)” value is recorded as “low polyreactivity”.
